Reference: article PMC2517623
Each block holds one substance with its values, some of them ahead of it.

Biological target: Crm1 (Xpo1) (UniProt P30822)
Assay: biotin-peptide streptavidin pulldown, stained gel

binding against the reference (reference: pS122 peptide, untreated, sites S122): stronger
Substance: Ace2 122-150 (from UniProt P21192) pS122 peptide, λ-phosphatase treated

binding against the reference (reference: unphosphorylated 122-150 peptide, sites S122): weaker
Substance: Ace2 122-150 (from UniProt P21192) pS122 peptide

binding against the reference (reference: unphosphorylated 122-150 peptide, sites S137): weaker
Substance: Ace2 122-150 (from UniProt P21192) pS137 peptide

binding against the reference (reference: pS137 peptide, untreated, sites S137): stronger
Substance: Ace2 122-150 (from UniProt P21192) pS137 peptide, λ-phosphatase treated
